Experiments:
[1] = biological target: recombinant KIR2DL1 protein (entire extracellular domain, produced in E. coli, refolded) (human) (UniProt P43626); experiment: BIAcore, second Ab on KIR2DL1 chip with first Ab (competitor) 1-6F1 bound
[2] = biological target: recombinant KIR2DL1 protein (entire extracellular domain, produced in E. coli, refolded) (human) (UniProt P43626); experiment: BIAcore, second Ab on KIR2DL1 chip with first Ab (competitor) 1-6F5 bound
[3] = biological target: recombinant KIR2DL1 protein (entire extracellular domain, produced in E. coli, refolded) (human) (UniProt P43626); experiment: BIAcore, second Ab on KIR2DL1 chip with first Ab (competitor) 1-7F9 bound
[4] = biological target: recombinant KIR2DL3 protein (entire extracellular domain, produced in E. coli, refolded) (human) (UniProt P43628); experiment: BIAcore, second Ab on KIR2DL3 chip with first Ab (competitor) 1-4F1 bound
[5] = biological target: recombinant KIR2DL3 protein (entire extracellular domain, produced in E. coli, refolded) (human) (UniProt P43628); experiment: BIAcore, second Ab on KIR2DL3 chip with first Ab (competitor) 1-6F1 bound
[6] = biological target: recombinant KIR2DL3 protein (entire extracellular domain, produced in E. coli, refolded) (human) (UniProt P43628); experiment: BIAcore, second Ab on KIR2DL3 chip with first Ab (competitor) 1-6F5 bound
[7] = biological target: recombinant KIR2DL3 protein (entire extracellular domain, produced in E. coli, refolded) (human) (UniProt P43628); experiment: BIAcore, second Ab on KIR2DL3 chip with first Ab (competitor) 1-7F9 bound
immobilized KIR2DS1 [8] = biological target: immobilized KIR2DS1 (UniProt Q14954); experiment: BIAcore, second Ab on KIR2DS1 chip with first Ab (competitor) 1-7F9 bound
[9] = biological target: recombinant KIR2DL1 protein (entire extracellular domain, produced in E. coli, refolded) (human) (UniProt P43626); experiment: BIAcore, direct binding of second Ab to KIR2DL1 chip (field of first Ab 1-6F1)
[10] = biological target: recombinant KIR2DL1 protein (entire extracellular domain, produced in E. coli, refolded) (human) (UniProt P43626); experiment: BIAcore, direct binding of second Ab to KIR2DL1 chip (field of first Ab 1-6F5)
[11] = biological target: recombinant KIR2DL1 protein (entire extracellular domain, produced in E. coli, refolded) (human) (UniProt P43626); experiment: BIAcore, direct binding of second Ab to KIR2DL1 chip (field of first Ab 1-7F9)
[12] = biological target: recombinant KIR2DL3 protein (entire extracellular domain, produced in E. coli, refolded) (human) (UniProt P43628); experiment: BIAcore, direct binding of second Ab to KIR2DL3 chip (field of first Ab 1-4F1)
[13] = biological target: recombinant KIR2DL3 protein (entire extracellular domain, produced in E. coli, refolded) (human) (UniProt P43628); experiment: BIAcore, direct binding of second Ab to KIR2DL3 chip (field of first Ab 1-6F1)
[14] = biological target: recombinant KIR2DL3 protein (entire extracellular domain, produced in E. coli, refolded) (human) (UniProt P43628); experiment: BIAcore, direct binding of second Ab to KIR2DL3 chip (field of first Ab 1-6F5)
[15] = biological target: recombinant KIR2DL3 protein (entire extracellular domain, produced in E. coli, refolded) (human) (UniProt P43628); experiment: BIAcore, direct binding of second Ab to KIR2DL3 chip (field of first Ab 1-7F9)
immobilized KIR2DS1 [16] = biological target: immobilized KIR2DS1 (UniProt Q14954); experiment: BIAcore, direct binding of second Ab to KIR2DS1 chip (field of first Ab 1-7F9)
[17] = biological target: recombinant KIR2DL1 protein (entire extracellular domain, produced in E. coli, refolded) (human) (UniProt P43626); experiment: BIAcore competition on KIR2DL1 chip; first Ab Pan2D, second Ab (competitor) EB6
[18] = biological target: recombinant KIR2DL1 protein (entire extracellular domain, produced in E. coli, refolded) (human) (UniProt P43626); experiment: BIAcore competition on KIR2DL1 chip; first Ab Pan2D, second Ab (competitor) 1-4F1
[19] = biological target: recombinant KIR2DL1 protein (entire extracellular domain, produced in E. coli, refolded) (human) (UniProt P43626); experiment: BIAcore competition on KIR2DL1 chip; first Ab Pan2D, second Ab (competitor) 1-6F1
[20] = biological target: recombinant KIR2DL1 protein (entire extracellular domain, produced in E. coli, refolded) (human) (UniProt P43626); experiment: BIAcore competition on KIR2DL1 chip; first Ab Pan2D, second Ab (competitor) 1-6F5
[21] = biological target: recombinant KIR2DL1 protein (entire extracellular domain, produced in E. coli, refolded) (human) (UniProt P43626); experiment: BIAcore competition on KIR2DL1 chip; first Ab Pan2D, second Ab (competitor) 1-7F9
[22] = biological target: recombinant KIR2DL1 protein (entire extracellular domain, produced in E. coli, refolded) (human) (UniProt P43626); experiment: BIAcore competition on KIR2DL1 chip; first Ab Pan2D, second Ab (competitor) DF200
[23] = biological target: recombinant KIR2DL3 protein (entire extracellular domain, produced in E. coli, refolded) (human) (UniProt P43628); experiment: BIAcore competition on KIR2DL3 chip; first Ab Pan2D, second Ab (competitor) 1-4F1
[24] = biological target: recombinant KIR2DL3 protein (entire extracellular domain, produced in E. coli, refolded) (human) (UniProt P43628); experiment: BIAcore competition on KIR2DL3 chip; first Ab Pan2D, second Ab (competitor) 1-6F1
[25] = biological target: recombinant KIR2DL3 protein (entire extracellular domain, produced in E. coli, refolded) (human) (UniProt P43628); experiment: BIAcore competition on KIR2DL3 chip; first Ab Pan2D, second Ab (competitor) 1-6F5
[26] = biological target: recombinant KIR2DL3 protein (entire extracellular domain, produced in E. coli, refolded) (human) (UniProt P43628); experiment: BIAcore competition on KIR2DL3 chip; first Ab Pan2D, second Ab (competitor) 1-7F9
[27] = biological target: recombinant KIR2DL3 protein (entire extracellular domain, produced in E. coli, refolded) (human) (UniProt P43628); experiment: BIAcore competition on KIR2DL3 chip; first Ab Pan2D, second Ab (competitor) DF200
[28] = biological target: recombinant KIR2DL3 protein (entire extracellular domain, produced in E. coli, refolded) (human) (UniProt P43628); experiment: BIAcore competition on KIR2DL3 chip; first Ab Pan2D, second Ab (competitor) gl183
immobilized KIR2DS1 [29] = biological target: immobilized KIR2DS1 (UniProt Q14954); experiment: BIAcore competition on KIR2DS1 chip; first Ab Pan2D, second Ab (competitor) 1-4F1
immobilized KIR2DS1 [30] = biological target: immobilized KIR2DS1 (UniProt Q14954); experiment: BIAcore competition on KIR2DS1 chip; first Ab Pan2D, second Ab (competitor) 1-7F9
immobilized KIR2DS1 [31] = biological target: immobilized KIR2DS1 (UniProt Q14954); experiment: BIAcore competition on KIR2DS1 chip; first Ab Pan2D, second Ab (competitor) DF200
[32] = biological target: KIR2DL1(R131W)-hFc (human) (UniProt P43626); experiment: ELISA, KIR2DL1(R131W)-hFc captured via goat anti-human antibodies, mAb titrated, peroxidase anti-mouse, A450 [panel pan2D]
[33] = biological target: recombinant KIR2DL1 protein (entire extracellular domain, produced in E. coli, refolded) (human) (UniProt P43626); experiment: BIAcore, second Ab on KIR2DL1 chip with first Ab (competitor) EB6 bound
[34] = biological target: recombinant KIR2DL1 protein (entire extracellular domain, produced in E. coli, refolded) (human) (UniProt P43626); experiment: BIAcore, direct binding of second Ab to KIR2DL1 chip (field of first Ab EB6)
[35] = biological target: recombinant KIR2DL1 protein (entire extracellular domain, produced in E. coli, refolded) (human) (UniProt P43626); experiment: BIAcore competition on KIR2DL1 chip; first Ab EB6, second Ab (competitor) EB6
[36] = biological target: recombinant KIR2DL1 protein (entire extracellular domain, produced in E. coli, refolded) (human) (UniProt P43626); experiment: BIAcore competition on KIR2DL1 chip; first Ab EB6, second Ab (competitor) 1-4F1
[37] = biological target: recombinant KIR2DL1 protein (entire extracellular domain, produced in E. coli, refolded) (human) (UniProt P43626); experiment: BIAcore competition on KIR2DL1 chip; first Ab EB6, second Ab (competitor) 1-6F1
[38] = biological target: recombinant KIR2DL1 protein (entire extracellular domain, produced in E. coli, refolded) (human) (UniProt P43626); experiment: BIAcore competition on KIR2DL1 chip; first Ab EB6, second Ab (competitor) 1-7F9
[39] = biological target: recombinant KIR2DL1 protein (entire extracellular domain, produced in E. coli, refolded) (human) (UniProt P43626); experiment: BIAcore competition on KIR2DL1 chip; first Ab EB6, second Ab (competitor) DF200
[40] = biological target: recombinant KIR2DL1 protein (entire extracellular domain, produced in E. coli, refolded) (human) (UniProt P43626); experiment: BIAcore competition on KIR2DL1 chip; first Ab EB6, second Ab (competitor) Pan2D

Substance: monoclonal antibody NKVSF1
- RU, binding with first Ab present (RU2) [1]: 440 RU
- RU, binding with first Ab present (RU2) [2]: 440 RU
- RU, binding with first Ab present (RU2) [3]: 534 RU
- RU, binding with first Ab present (RU2) [4]: 890 RU
- RU, binding with first Ab present (RU2) [5]: 1090 RU
- RU, binding with first Ab present (RU2) [6]: 950 RU
- RU, binding with first Ab present (RU2) [7]: 830 RU
- RU, binding with first Ab present (RU2) (immobilized KIR2DS1 [8]): 1200 RU
- RU, direct binding (RU1) [9]: 475 RU
- RU, direct binding (RU1) [10]: 475 RU
- RU, direct binding (RU1) [11]: 545 RU
- RU, direct binding (RU1) [12]: 2400 RU
- RU, direct binding (RU1) [13]: 990 RU
- RU, direct binding (RU1) [14]: 990 RU
- RU, direct binding (RU1) [15]: 870 RU
- RU, direct binding (RU1) (immobilized KIR2DS1 [16]): 1350 RU
- % inhibition of second Ab binding by first Ab [17]: 90%
- % inhibition of second Ab binding by first Ab [18]: 95%
- % inhibition of second Ab binding by first Ab [19]: 12%
- % inhibition of second Ab binding by first Ab [20]: 13%
- % inhibition of second Ab binding by first Ab [21]: 2%
- % inhibition of second Ab binding by first Ab [22]: 90%
- % inhibition of second Ab binding by first Ab [23]: 68%
- % inhibition of second Ab binding by first Ab [24]: 8%
- % inhibition of second Ab binding by first Ab [25]: 18%
- % inhibition of second Ab binding by first Ab [26]: 15%
- % inhibition of second Ab binding by first Ab [27]: 95%
- % inhibition of second Ab binding by first Ab [28]: 85%
- % inhibition of second Ab binding by first Ab (immobilized KIR2DS1 [29]): 100%
- % inhibition of second Ab binding by first Ab (immobilized KIR2DS1 [30]): 45%
- % inhibition of second Ab binding by first Ab (immobilized KIR2DS1 [31]): 100%
- EC50 (read off the curve) [32]: 20 nM

Substance: EB6 (IgG1 anti KIR2DL1) (antibody)
- RU, binding with first Ab present (RU2) [33]: 200 RU
- RU, binding with first Ab present (RU2) [1]: 320 RU
- RU, binding with first Ab present (RU2) [3]: 180 RU
- RU, direct binding (RU1) [34]: 460 RU
- % inhibition of second Ab binding by first Ab [35]: 57%
- RU, direct binding (RU1) [9]: 260 RU
- RU, direct binding (RU1) [11]: 460 RU
- % inhibition of second Ab binding by first Ab [36]: 48%
- % inhibition of second Ab binding by first Ab [37]: 23%
- % inhibition of second Ab binding by first Ab [38]: 65%
- % inhibition of second Ab binding by first Ab [39]: 60%
- % inhibition of second Ab binding by first Ab [40]: 40%
